The text below walks through data of patent US20180111996A1 (Merck Sharp & Dohme, published 2018).

Test [1] deals with cynomolgous PD-1 (form in the kinetic assay not stated) (cynomolgus macaque). Kind of test: kinetic analysis, format for cynomolgus PD-1 not stated.
Test [2] addresses T1, cynomolgus macaque PD-1 receptor on stably transfected CHO-K1 cells (cynomolgus macaque, UniProt B0LAJ3 25-288).
T1 construct: also called cynomolgus PD-1; cynomolgous PD-1
The test is described as follows: inhibition of ligand (PD-L1, PD-L2) binding to cynomolgous PD-1.

The target in test [3] is T2, human PD-1 (hPD-1) receptor expressed on cells (human, UniProt Q15116 25-288).
T2 construct: whole, on cells; also called hPD-1/CHO; CHO-hPD1
Kind of test: CELISA on CHO-hPD-1 cells.

Test [4] addresses T3, hPD-1/Fc (R & D Systems) (human, UniProt Q15116 25-167).
T3 construct: also called human PD-1/Fc; PD-1-Fc fusion protein; not shown: Fc part of the bought fusion protein, not described
Kind of test: protein ELISA, hPD-1/Fc immobilized. For orientation: ELISA stands for enzyme-linked immunosorbent assay.

The target of test [5] is T2, human PD-1 (hPD-1) receptor expressed …. Kind of test: FMAT, blockade of hPD-L1/Fc binding to CHO-hPD-1 cells.
The target is the same in test [6]. The test is described as follows: FMAT, blockade of hPD-L2/Fc binding to CHO-hPD-1 cells.
In test [7] the target is T3, hPD-1/Fc (R & D Systems). The test is described as follows: bio-light interferometry (ForteBio Octet), PD-1/Fc on biosensor. In general terms: Biolayer interferometry detects binding as a change in optical thickness at a sensor tip.
Test [8] deals with T2, human PD-1 (hPD-1) receptor expressed …. The test is described as follows: cell-based or functional assay.
The target is the same in test [9]. Kind of test: CELISA on CHO-hPD-1 cells. The source holds these as a separate data set.
Test [10] has as its target T3, hPD-1/Fc (R & D Systems). Kind of test: protein ELISA, hPD-1/Fc immobilized. The source holds these as a separate data set.
Test [11] deals with T1, cynomolgus macaque PD-1 receptor on …. The test is described as follows: CELISA on cynomolgus PD-1 transfected CHO-K1 cells.
Test [12] addresses T4, mouse PD-1 receptor on stably transfected CHO-K1 cells (mouse, UniProt Q02242 25-288).
T4 construct: whole, on cells
T4 sequence (looked up): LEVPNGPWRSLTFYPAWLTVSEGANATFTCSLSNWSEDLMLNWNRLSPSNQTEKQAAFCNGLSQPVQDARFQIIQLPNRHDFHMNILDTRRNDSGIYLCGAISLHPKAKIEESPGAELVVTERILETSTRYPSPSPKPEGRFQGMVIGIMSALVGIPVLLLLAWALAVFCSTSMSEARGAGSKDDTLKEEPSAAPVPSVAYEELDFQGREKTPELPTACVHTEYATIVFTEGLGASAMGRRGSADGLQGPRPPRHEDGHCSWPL
The test is described as follows: CELISA and other assays on mouse PD-1 transfected CHO-K1 cells.

The target of test [13] is T2, human PD-1 (hPD-1) receptor expressed …. The test is described as follows: CELISA on CHO cells expressing human PD-1, 450/620 nm.
For test [14] the target is unchanged. Kind of test: FMAT, blockade of labeled hPD-L1/Fc binding to CHO-hPD-1 cells.
For test [15] the target is unchanged. Kind of test: FMAT, blockade of labeled hPD-L2/Fc binding to CHO-hPD-1 cells.
Test [16] has as its target T3, hPD-1/Fc (R & D Systems). The test is described as follows: bio-light interferometry (ForteBio Octet), PD-1/Fc on biosensor. This is another data set of the same source.
Test [17] concerns the target T2, human PD-1 (hPD-1) receptor expressed …. Kind of test: FACS, blockade of hPD-L1/Fc binding to CHO cells expressing human PD-1. (Flow cytometry measures light scatter and fluorescence of single cells or particles in a stream.)
The target is the same in test [18]. The test is described as above. This is another data set of the same source.
Test [19] addresses T3, hPD-1/Fc (R & D Systems). Kind of test: bio-light interferometry (ForteBio Octet); lower end tied to 09A by Table II.
Test [20] addresses T2, human PD-1 (hPD-1) receptor expressed …. The test is described as follows: FMAT competition on CHO-hPD-1 cells; blocked ligand: fluorescently labelled hPD-L1/Fc at a constant concentration.
Test [21] has the same target. The test is described as follows: FMAT competition on CHO-hPD-1 cells; blocked ligand: fluorescently labelled hPD-L2/Fc at a constant concentration.

Positions count from the first letter of the chain named. Numbers in names are those of the source. Read-outs that look alike come from different tables or passages of the source. Some results are limits rather than exact numbers.

T1 sequence (B0LAJ3 entry or part of it limits assumed): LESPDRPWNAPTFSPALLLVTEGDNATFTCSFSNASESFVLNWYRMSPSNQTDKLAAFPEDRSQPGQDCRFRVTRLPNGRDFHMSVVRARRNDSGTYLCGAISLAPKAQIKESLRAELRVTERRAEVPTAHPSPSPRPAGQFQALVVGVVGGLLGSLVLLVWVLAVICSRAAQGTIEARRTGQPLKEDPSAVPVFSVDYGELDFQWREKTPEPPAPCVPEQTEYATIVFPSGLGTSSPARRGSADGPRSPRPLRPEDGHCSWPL
T3 sequence (Q15116 25-167 limits assumed): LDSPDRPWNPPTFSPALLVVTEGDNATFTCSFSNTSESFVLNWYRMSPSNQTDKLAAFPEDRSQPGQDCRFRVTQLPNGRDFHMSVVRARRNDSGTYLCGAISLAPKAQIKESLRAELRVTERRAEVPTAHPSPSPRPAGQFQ
T2 sequence (Q15116 25-288): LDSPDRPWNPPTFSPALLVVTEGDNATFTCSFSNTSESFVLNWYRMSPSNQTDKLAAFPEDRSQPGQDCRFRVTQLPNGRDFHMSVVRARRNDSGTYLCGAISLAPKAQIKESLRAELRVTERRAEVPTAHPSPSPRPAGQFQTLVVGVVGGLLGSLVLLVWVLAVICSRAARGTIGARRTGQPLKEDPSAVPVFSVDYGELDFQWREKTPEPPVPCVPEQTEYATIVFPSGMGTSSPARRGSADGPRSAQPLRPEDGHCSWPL

B1: h409A11 (antibody, human IgG4 S228P, kappa, V domains shown)
VH: QVQLVQSGVEVKKPGASVKVSCKASGYTFTNYYMYWVRQAPGQGLEWMGGINPSNGGTNFNEKFKNRVTLTTDSSTTTAYMELKSLQFDDTAVYYCARRDYRFDMGFDYWGQGTTVTVSS
VL: EIVLTQSPATLSLSPGERATLSCRASKGVSTSGYSYLHWYQQKPGQAPRLLIYLASYLESGVPARFSGSGSGTDFTLTISSLEPEDFAVYYCQHSRDLPLTFGGGTKVEIKR
notes: also called humanized IgG4 version of 09A antibody (409A-H + K09A-L-11)
Take B1: the Kd (in general, the equilibrium constant for the complex coming apart) in test [1] is under 0.12 nM. For the same molecule, the IC50 (commonly the midpoint of a concentration-inhibition curve) in test [2] is under 1 nM.

B2: h409A16 (antibody, human IgG4 S228P, kappa, V domains shown)
VH: B1 VH
VL: EIVLTQSPLSLPVTPGEPASISCRASKGVSTSGYSYLHWYLQKPGQSPQLLIYLASYLESGVPDRFSGSGSGTDFTLKISRVEAEDVGVYYCQHSRDLPLTFGQGTKLEIKR
notes: also called humanized IgG4 version of 09A antibody (409A-H + K09A-L-16)
For B2, the EC50 – broadly, the concentration needed to bring the measured effect to its halfway point – came to 0.063 nM in test [3] and 0.09 nM in test [4]. For the same molecule, the figures for the Kd in test [1] and in test [7] were under 0.12 nM and 0.0273 nM, respectively. Moreover, the values for the IC50 in test [5], in test [6] and in test [2] were 0.696 nM, 0.81 nM and under 1 nM, respectively. The koff – broadly, the first-order rate constant of dissociation – in [7] was 2.72e-05 s⁻¹. The kon (commonly the rate constant with which the complex forms) in test [7] was found to be 997000 M⁻¹ s⁻¹.

B3: h409A17 (antibody, human IgG4 S228P, kappa, V domains shown)
VH: B1 VH
VL: B2 VL with E1D, L4M, S7T, D74A, V89L
notes: also called humanized IgG4 version of 09A antibody (409A-H + K09A-L-17)
For B3, the concentration for a half-maximal effect (EC50) in [3] amounted to 0.083 nM; in test [4] it was 0.088 nM. The IC50 in test [5] is 0.818 nM; in test [6], 0.463 nM; in test [2] it was under 1 nM. The Kd in [7] stood at 0.191 nM. In test [7], this molecule returned a koff of 0.000191 s⁻¹. This molecule also returned a kon in test [7] of 1e+06 M⁻¹ s⁻¹.

B4: hPD-1.09A (antibody, V domains shown)
VH: QVQLQQPGAELVKPGTSVKLSCKASGYTFTNYYMYWVKQRPGQGLEWIGGINPSNGGTNFNEKFKNKATLTVDSSSSTTYMQLSSLTSEDSAVYYCTRRDYRFDMGFDYWGQGTTLTVSS
VL: DIVLTQSPASLAVSLGQRAAISCRASKGVSTSGYSYLHWYQQKPGQSPKLLIYLASYLESGVPARFSGSGSGTDFTLNIHPVEEEDAATYYCQHSRDLPLTFGTGTKLELK
For B4, in test [8], the “fold change in IFNgamma, SEB stimulated blood of patient A (prostate), 25 ug/mL hPD-1.09A vs SEB alone” value stood at 1.9 fold; the “fold change in IFNgamma, SEB stimulated blood of patient B (prostate), 25 ug/mL hPD-1.09A vs SEB alone” value was found to be 1.2 fold; the “fold change in IFNgamma, SEB stimulated blood of patient C (prostate), 25 ug/mL hPD-1.09A vs SEB alone” value amounted to 2 fold; the “fold change in IFNgamma, SEB stimulated blood of patient D (melanoma), 25 ug/mL hPD-1.09A vs SEB alone” value is 1.5 fold. In test [8], the “fold change in IL-2, SEB stimulated blood of patient A (prostate), 25 ug/mL hPD-1.09A vs SEB alone” value worked out at 3.4 fold; the “fold change in IL-2, SEB stimulated blood of patient B (prostate), 25 ug/mL hPD-1.09A vs SEB alone” value was 2.1 fold; the “fold change in IL-2, SEB stimulated blood of patient C (prostate), 25 ug/mL hPD-1.09A vs SEB alone” value came out at 2 fold; the “fold change in IL-2, SEB stimulated blood of patient D (melanoma), 25 ug/mL hPD-1.09A vs SEB alone” value turned out to be 2 fold. Further, in [8], the “fold change in IL-5, SEB stimulated blood of patient A (prostate), 25 ug/mL hPD-1.09A vs SEB alone” value is 0.7 fold; the “fold change in IL-5, SEB stimulated blood of patient B (prostate), 25 ug/mL hPD-1.09A vs SEB alone” value amounted to 0.4 fold; the “fold change in IL-5, SEB stimulated blood of patient C (prostate), 25 ug/mL hPD-1.09A vs SEB alone” value is 0.9 fold; the “fold change in IL-5, SEB stimulated blood of patient D (melanoma), 25 ug/mL hPD-1.09A vs SEB alone” value was 0.4 fold. In [8], the “fold change in IL-6, SEB stimulated blood of patient A (prostate), 25 ug/mL hPD-1.09A vs SEB alone” value is 2.1 fold; the “fold change in IL-6, SEB stimulated blood of patient B (prostate), 25 ug/mL hPD-1.09A vs SEB alone” value came out at 2.2 fold; the “fold change in IL-6, SEB stimulated blood of patient C (prostate), 25 ug/mL hPD-1.09A vs SEB alone” value stood at 2.4 fold; the “fold change in IL-6, SEB stimulated blood of patient D (melanoma), 25 ug/mL hPD-1.09A vs SEB alone” value was determined as 1.9 fold. Besides, in test [8], the “fold change in IL-13, SEB stimulated blood of patient A (prostate), 25 ug/mL hPD-1.09A vs SEB alone” value is 0.8 fold; the “fold change in IL-13, SEB stimulated blood of patient B (prostate), 25 ug/mL hPD-1.09A vs SEB alone” value was 0.6 fold; the “fold change in IL-13, SEB stimulated blood of patient C (prostate), 25 ug/mL hPD-1.09A vs SEB alone” value was determined as 1.1 fold; the “fold change in IL-13, SEB stimulated blood of patient D (melanoma), 25 ug/mL hPD-1.09A vs SEB alone” value was 0.5 fold. Also, in [8], the “fold change in IL-17, SEB stimulated blood of patient A (prostate), 25 ug/mL hPD-1.09A vs SEB alone” value is 1.8 fold; the “fold change in IL-17, SEB stimulated blood of patient B (prostate), 25 ug/mL hPD-1.09A vs SEB alone” value came out at 2.6 fold; the “fold change in IL-17, SEB stimulated blood of patient C (prostate), 25 ug/mL hPD-1.09A vs SEB alone” value stood at 2.4 fold; the “fold change in IL-17, SEB stimulated blood of patient D (melanoma), 25 ug/mL hPD-1.09A vs SEB alone” value was 2 fold. Further, in [8], the “fold change in TNFalpha, SEB stimulated blood of patient A (prostate), 25 ug/mL hPD-1.09A vs SEB alone” value was found to be 2 fold; the “fold change in TNFalpha, SEB stimulated blood of patient B (prostate), 25 ug/mL hPD-1.09A vs SEB alone” value was determined as 1.5 fold; the “fold change in TNFalpha, SEB stimulated blood of patient C (prostate), 25 ug/mL hPD-1.09A vs SEB alone” value was 2.4 fold; the “fold change in TNFalpha, SEB stimulated blood of patient D (melanoma), 25 ug/mL hPD-1.09A vs SEB alone” value came to 1.9 fold. This molecule also displayed a concentration giving a half-maximal response (EC50) in test [9] of 0.113 nM. Also, the EC50 in test [10] was 0.123 nM. In test [11], the binding result is on record as “binds”. Further, the binding result in [12] is listed as “no binding”. Moreover, the EC50 (read off the curve) (usually the concentration needed to bring the measured effect to its halfway point) in [13] was about 0.1 nM. Moreover, the IC50 in [14] was 0.9 pM. Further, in test [15], the IC50 was 1.7 pM. In test [16], binding was put at a Kd of 0.022 nM, the koff came to 3.6e-05 s⁻¹ and the kon was found to be 1.64e+06 M⁻¹ s⁻¹. Moreover, in test [17], the IC50 is under 1 nM. The molecule also yielded an IC50 in test [18] of 0.8 pM. In test [19], the Kd is 0.02 nM. The “IC50 (read off the curve)” value in test [20] is about 0.8 nM. Further, the “IC50 (read off the curve)” value in [21] was about 2 nM.

B5: hPD-1.08A (antibody, V domains shown)
VH: QVQLQQPGAELVKPGASVKLSCKASGYTFTSYYLYWMKQRPGQGLEWIGGVNPSNGGTNFSEKFKSKATLTVDKSSSTAYMQLSSLTSEDSAVYYCTRRDSNYDGGFDYWGQGTTLTVSS
VL: B4 VL with A9T, A20T, G28S, Y34F, S47P, Y53F, Y57N, R96W, D97E, T104A
Take B5: the figures for the EC50 in test [9] and in [10] were 0.079 nM and 0.076 nM, respectively. For the same molecule, the binding result is listed as “binds” in test [11] and “no binding” in test [12]. Besides, the “EC50 (read off the curve)” value in test [13] is about 0.08 nM. Further, the IC50 in [14] was 0.73 pM; in [15] it was 2.1 pM; in test [17] it was under 1 nM; in test [18] it was 0.9 pM. In [16], this molecule showed a Kd of 0.0241 nM. In addition, in [16], the koff amounted to 3.03e-05 s⁻¹. Besides, the kon in test [16] is 1.25e+06 M⁻¹ s⁻¹. Besides, the results for the “IC50 (read off the curve)” value in test [20] and in [21] were about 0.7 nM and about 2 nM, respectively.
